From patent publication US10196447B2, “Anti-vascular endothelial growth factor receptor 2 (VEGFR2) antibody and methods of use thereof for detecting VEGFR2 and for inhibiting tumor growth, tumor angiogenesis and/or inducing cancer cell cytotoxicity” (Academia Sinica, priority 2015, dated 2019)

Tests used:
[1] = system: PC-3 xenografts; test: PC-3 human prostate cancer xenograft model; format: in vivo, NOD/SCID mice
Experimental: Procedures involving animals and their care were conducted according to the guidelines of the Academia Sinica Institutional Animal Care and Utilization Committee in compliance with national and international laws and policies. Non-obese diabetic-severe combined immunodeficiency (NOD/SCID) mice were purchased from the National Laboratory Animal Center (Taiwan). The human prostate cancer xenograft tumor model was developed by subcutaneously injecting 2×10^6 PC-3 cells into the dorsal flank of a six-week old male mouse. Animals were monitored daily for general health, and body weights were measured twice weekly. Tumor size was measured with slide calipers and calculated as length×width^2×0.52. […] An antibody dose of 20 mg/kg was injected twice a week for four weeks. For combination therapy, docetaxel (ScinoPharm Taiwan) was also intravenously administered at a dose of 5 mg/kg once a week for three weeks. At the end of the experiment, tumor tissue and visceral organs were removed and fixed for histological analysis.
For tumor blood vessel studies, samples were fixed in OCT. Frozen blocks were cut into 50 μm sections, and frozen tumor tissue sections were fixed with 1% paraformaldehyde, permeabilized with 0.1% TRITON™-X 100, blocked with normal horse serum (Vector), and then incubated for 1 hour at room temperature (RT) with a 1:100 dilution of the primary antibody (rat anti-mouse CD31 (PECAM-1); BD Bioscience). Subsequently, the tissue sections were incubated with Alexa 549-conjugated goat anti-rat antibody (Invitrogen) at room temperature for 1 hour. Nuclei were stained with DAPI, and sections were then mounted with fluorescent mounting solution. Immunofluorescent images were acquired using a Zeiss Axiovert 200M microscope. Positive areas of CD31 endothelial cells were quantified by pixel area counting and normalized with DAPI staining using ImageJ software under low power magnification.
The frozen tumor tissue sections were fixed with 1% paratbrmaldehyde and permeabilized with 0.1% TRITON™-X 100, before being incubated with terminal deoxynucleotidyltransferase-mediated dUTP nick end labeling reaction mixture (Roche Diagnostics) at 37° C. for 1 hour. After washing three times with PBS, the slides were incubated with FITC-anti-DIG antibody (1:2000) and DAPI (1:500). Slides were mounted with mounting solution and visualized under a fluorescent microscope. Slides were independently examined by three individuals. Areas with TUNEL-positive cells were quantified by pixel area counting, and normalized to DAPI staining using ImageJ software.

[2] = molecular target: T1, VEGFR2-Fc (Homo sapiens, UniProt P35968); test: Screening of anti-VEGFR2 phage clones by ELISA; format: binding; conditions: 1×10^9 cfu phage titer
T1 construct: purchased R&D Systems
T1 sequence (P35968 with tags, fused parts or gaps limits assumed): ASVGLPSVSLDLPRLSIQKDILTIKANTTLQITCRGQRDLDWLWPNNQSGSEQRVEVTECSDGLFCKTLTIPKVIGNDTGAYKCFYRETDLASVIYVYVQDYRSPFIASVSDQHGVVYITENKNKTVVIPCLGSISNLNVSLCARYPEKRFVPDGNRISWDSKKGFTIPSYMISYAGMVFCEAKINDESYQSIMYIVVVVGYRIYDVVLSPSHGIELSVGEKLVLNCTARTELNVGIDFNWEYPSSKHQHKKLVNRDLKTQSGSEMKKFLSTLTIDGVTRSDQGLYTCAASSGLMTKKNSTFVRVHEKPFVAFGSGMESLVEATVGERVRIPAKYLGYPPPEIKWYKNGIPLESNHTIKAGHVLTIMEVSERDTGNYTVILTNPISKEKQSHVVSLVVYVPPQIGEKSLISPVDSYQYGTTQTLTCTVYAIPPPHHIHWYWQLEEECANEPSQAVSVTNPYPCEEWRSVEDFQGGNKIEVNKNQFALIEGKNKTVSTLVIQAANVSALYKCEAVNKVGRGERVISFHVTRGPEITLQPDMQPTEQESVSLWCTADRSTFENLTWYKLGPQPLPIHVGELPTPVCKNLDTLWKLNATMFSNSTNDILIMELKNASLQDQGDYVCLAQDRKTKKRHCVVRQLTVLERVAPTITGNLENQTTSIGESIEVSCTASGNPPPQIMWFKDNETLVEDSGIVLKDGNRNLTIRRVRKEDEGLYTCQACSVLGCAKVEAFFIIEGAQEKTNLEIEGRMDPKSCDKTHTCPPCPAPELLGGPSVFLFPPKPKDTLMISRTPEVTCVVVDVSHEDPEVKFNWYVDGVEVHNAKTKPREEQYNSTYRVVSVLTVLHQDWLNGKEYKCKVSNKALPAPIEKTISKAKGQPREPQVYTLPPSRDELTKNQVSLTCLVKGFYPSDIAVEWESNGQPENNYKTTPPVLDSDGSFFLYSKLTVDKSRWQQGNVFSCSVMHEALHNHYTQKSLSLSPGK
Experimental: (§1) The selected phages were further examined by ELISA screening. The 96-well plates were coated with 1 μg/ml of VEGFR2-Fc, Met-Fc (R&D), or BSA (Sigma) protein in 0.1 M sodium bicarbonate overnight at 4° C. After blocking with 1% BSA in PBS (w/v) for 2 hr at room temperature, 70-randomly selected phage clones were added to the plates at a 1:2 dilution in 1% BSA, and incubated for 1 hr at room temperature. Following washes with PBST, the plates were incubated with a 1:2000 dilution of horseradish peroxidase (HRP)-conjugated mouse anti-M13 phage antibody (GE) for 1 hr. After washing with PBST, the colorimetric reaction was developed with the peroxidase substrate ortho-phenylenediamine (OPD; Sigma) plus H2O2 for 15 min, and then terminated by the addition of 3 N HCl. The absorbance at 490 nm was determined using a microplate reader (SpectraMax, Molecular Devices). Plasmid DNA of positive clones were isolated and sequenced using the pCANTAB5 sequencing primer set.

[3] = system: Met-Fc; test: Phage clone ELISA on control protein; format: binding
Experimental: as §1

[4] = molecular target: T2, VEGFR2 (Homo sapiens, UniProt P35968); test: Competitive VEGF binding assay (ELISA): VEGF-A binding to immobilized VEGFR2; conditions: scFv; for competitive ability against VEGF-A binding to VEGFR2: plate-based competition binding assay; for IC50: 3 nM human VEGF-A, immobilized VEGFR2-Fc, read-out: half-maximal inhibitory concentration (IC50) of the interaction of VEGF-A with VEGFR2
T2 construct: purchased R&D Systems
T2 sequence (P35968 with tags, fused parts or gaps limits assumed): as above
Experimental: Various concentrations of anti-VEGFR2 scFvs were mixed with 3 nM human VEGF-A (Peprotech), and added to 96-well plates coated with 1 μg/ml of VEGFR2-Fc and pre-blocked in 1% BSA. After incubation for 1 hr at RT and washes with PBST, the bound VEGF molecules were detected using anti-VEGF mAb (GeneTex) and HRP-labeled goat anti-mouse IgG. The reaction was developed with a mixture of OPD and H2O2, and subsequently terminated with 3 N HCl. The absorbance was determined using a microplate reader at 490 nm.
To determine whether the anti-VEGFR2 scFvs can block VEGF-A binding to VEGFR2, we performed a plate-based competition binding assay in which increasing concentrations of scFvs competed with VEGF-A for binding to the immobilized VEGFR2.
We analyzed the affinity of both human antibodies to VEGFR2 using a BIACORE T100™. […] We performed solid-phase competitive assays to quantitatively evaluate the disruption of VEGF-A/VEGFR2 binding by individual antibodies.

[5] = system: VEGFR2 signaling pathway; test: Western blot of VEGF-A-induced phosphorylation in HUVECs; format: cell-based, human; conditions: scFv
From the text: Western blots were pertbrmed using standard protocols, as previously described. The primary antibodies were purchased from Cell Signaling Technology and used at a 1,000-fold dilution for protein detection; the antibodies used are as follows: anti-VEGFR2 (clone 55B11), anti-phospho-VEGFR2 (Tyr1175; clone 19A10), anti-FAK, anti-phospho-FAK (Tyr397; cloneD20B1), anti-p42/44 MAPK, anti-phospho-p42/44 MAPK (Thr202/Tyr204; cloneD13.14.4E), anti-Akt, and anti-phospho-Akt (Ser473).

[6] = molecular target: murine VEGFR2 protein (Mus musculus, UniProt P35918, DEL223-227); test: Cross-reactivity with murine VEGFR2; format: binding
murine VEGFR2 protein, sequence (P35918 with tags, fused parts or gaps DEL223-227): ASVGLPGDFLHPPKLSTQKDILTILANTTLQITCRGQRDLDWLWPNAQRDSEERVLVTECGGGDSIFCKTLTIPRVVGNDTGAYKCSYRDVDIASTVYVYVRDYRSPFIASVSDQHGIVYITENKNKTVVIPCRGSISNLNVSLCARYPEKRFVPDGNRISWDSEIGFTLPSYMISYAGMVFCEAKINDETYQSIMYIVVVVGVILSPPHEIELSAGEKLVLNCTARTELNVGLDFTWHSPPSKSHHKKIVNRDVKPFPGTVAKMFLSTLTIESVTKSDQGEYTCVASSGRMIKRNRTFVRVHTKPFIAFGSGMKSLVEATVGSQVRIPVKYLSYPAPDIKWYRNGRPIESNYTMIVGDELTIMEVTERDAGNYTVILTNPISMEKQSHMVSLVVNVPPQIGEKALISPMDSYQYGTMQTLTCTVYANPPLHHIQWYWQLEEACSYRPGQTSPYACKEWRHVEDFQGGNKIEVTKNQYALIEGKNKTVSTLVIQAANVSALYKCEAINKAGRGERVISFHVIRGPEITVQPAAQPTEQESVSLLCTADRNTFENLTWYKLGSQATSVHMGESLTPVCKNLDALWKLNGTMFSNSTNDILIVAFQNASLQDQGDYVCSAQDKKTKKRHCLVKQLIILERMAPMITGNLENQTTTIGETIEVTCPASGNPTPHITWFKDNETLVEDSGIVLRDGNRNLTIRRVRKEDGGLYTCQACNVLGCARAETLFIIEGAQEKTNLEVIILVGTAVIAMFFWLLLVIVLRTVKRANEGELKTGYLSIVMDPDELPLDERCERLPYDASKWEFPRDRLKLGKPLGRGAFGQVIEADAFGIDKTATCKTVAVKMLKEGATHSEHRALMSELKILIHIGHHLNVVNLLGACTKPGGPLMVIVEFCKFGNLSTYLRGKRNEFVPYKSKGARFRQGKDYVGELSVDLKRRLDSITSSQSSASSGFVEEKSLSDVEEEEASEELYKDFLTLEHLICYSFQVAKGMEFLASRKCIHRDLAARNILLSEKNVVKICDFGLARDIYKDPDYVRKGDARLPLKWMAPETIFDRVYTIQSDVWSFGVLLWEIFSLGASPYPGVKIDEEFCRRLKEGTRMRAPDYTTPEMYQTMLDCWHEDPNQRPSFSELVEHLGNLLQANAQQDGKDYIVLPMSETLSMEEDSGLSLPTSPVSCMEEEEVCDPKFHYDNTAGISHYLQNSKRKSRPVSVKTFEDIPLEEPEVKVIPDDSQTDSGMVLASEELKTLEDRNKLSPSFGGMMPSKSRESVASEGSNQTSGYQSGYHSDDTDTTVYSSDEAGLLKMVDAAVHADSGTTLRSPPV

Which results are given for `CC(=O)O[C@@]12CO[C@@H]1C[C@H](O)[C@@]1(C)C(=O)[C@H](O)C3=C(C)[C@@H](OC(=O)[C@H](O)[C@@H](NC(=O)OC(C)(C)C)c4ccccc4)C[C@@](O)([C@@H](OC(=O)c4ccccc4)[C@H]21)C3(C)C` [docetaxel, reference compound]?
tumor growth reduction ([1]; by day 38, antibody 20 mg/kg i.v. twice a week, docetaxel 5 mg/kg i.v. once a week): 70%; loss of body weight ([1]; treatment period): about 20%

B1: R2PC45: phage-displayed human scFv clone binding VEGFR2; VH CDR1-3 SEQ ID NO: 21-23, VL CDR1/CDR3 SEQ ID NO: 24, 25 (antibody, V domains shown)
VH: QVNLRESGGGVVQPGRSLRLSCAASGFTFSSYAMHWVRQAPGKGLEWVAVISYDGSNKYYADSVKGRFTISRDNSKNTLYLQMNSLRAEDTAVYYCAREQDYGSSSGDAFDIWGQGTMVTVSS
VL: DIQMTQSPSSLSASVGDRVTITCRASQRISSYLNWYQQKPGKAPKLLIYDASNLQSGVPSRFSGSGSGTDFTLTINGLQPDDFAIYFCHQSYSAPPTFGQGTKVEIK
Which results are given for B1?
binding of phage clones to VEGFR2-Fc [2]: bind highly; binding of phage clones to c-Met-Fc control protein [3]: not

B2: R2PC28: phage-displayed human scFv clone binding VEGFR2; VH CDR1-3 SEQ ID NO: 11-13, VL CDR1/CDR3 SEQ ID NO: 14, 15 (antibody, V domains shown)
VH: EVQLVESGGALVQPGGSLRLSCVGSEFTFSHYNLHWVRQAPGKGLEWLAVISDDGRNKYYGDSVKGRFTISRDNSKNTLYLQMNGLRAEDTAVYYCARVPTVWRGGVYDIWGQGTMVTVSS
VL: EIVLTQSPATLSLSPGERATLSCRASQSVGSYLAWYQQRPGQPPRLLIYDASNRATGVAARFSGSGSGTDFTLTIDSLEAEDAATYYCHQSSSLPRTFGQGTKLEIK
Which results are given for B2?
binding of phage clones to VEGFR2-Fc [2]: bind highly; binding of phage clones to c-Met-Fc control protein [3]: not

B3: R2S28: soluble anti-VEGFR2 scFv protein generated from phage clone R2PC28 (antibody, V domains shown)
VH: EVQLVESGGALVQPGGSLRLSCVGSEFTFSHYNLHWVRQAPGKGLEWLAVISDDGRNKYYGDSVKGRFTISRDNSKNTLYLQMNGLRAEDTAVYYCARVPTVWRGGVYDIWGQGTMVTVSS
VL: EIVLTQSPATLSLSPGERATLSCRASQSVGSYLAWYQQRPGQPPRLLIYDASNRATGVAARFSGSGSGTDFTLTIDSLEAEDAATYYCHQSSSLPRTFGQGTKLEIK
With B3 as the molecule, how does the “competitive ability against VEGF-A binding to VEGFR2” value [4] read?
The value was “comparatively weak competitive ability”.

B4: R2S12: soluble anti-VEGFR2 scFv protein from phage clone R2PC12; VH SEQ ID NO: 76, VL SEQ ID NO: 77 (antibody, V domains shown)
VH: QVNLRESGGGLVKPGGSLRLSCAASGFTFGSYTMNWVRQAPGKGLEWVASITSGSSYIFYTDSVKGRFTISRDNSRSSLFLQMNSLRAEDTAIYYCARGSASAFDIWGQGTMVTVSS
VL: DIQMTQSPSSLSASVGDRVTITCKASDDIINYLNWYQQKPGEAPKLLIYDASILETGVPSRFSGSGSGTDFTFTISSLQPEDIATYYCQQYDILPLTFGGGTKLEIK
modifications: scFv linker; VH region of R2S12 or R2S12-AF; VL region of R2S12
For B4, which IC50 [4] is on record?
The IC50 was 3.26 nM.

What about the “tyrosine phosphorylation of VEGFR2 by VEGF-A” value [5] of the same molecule?
The value was “strongest inhibition activity”.

What about the “cross-reaction / binding to murine VEGFR2” value [6] of the same molecule?
Its value is “did not cross-react”.

B5: R2PC8: phage-displayed human scFv clone binding VEGFR2; VH CDR1-3 SEQ ID NO: 1-3, VL CDR1/CDR3 SEQ ID NO: 4, 5 (antibody, V domains shown)
VH: QVQLVQSGGGLVKPGGSLRLSCAASGFTFSSYSMSWVRQAPGKGLEWVSSISSSSSYIYYADSVKGRFTISRDNAKNSLYLQMNSLRAEDTAVYYCARSTDAFDIWGQGTMVTVSS
VL: DIVMTQSPSSLSASVGDRVTITCRASQRISNYLNWYQHKSGEDPKLLIYAASSLQSGVPSRFSGSGSGTDFTLTISSLQPEDFATYYCQQYDRYPPTFGQGTKLEIK
How did the “binding of phage clones to VEGFR2-Fc” value [2] turn out when B5 was run?
The value was “bind highly”.

And the “binding of phage clones to c-Met-Fc control protein” value [3]?
The value was “not”.

B6: R2S8: soluble anti-VEGFR2 scFv protein generated from phage clone R2PC8 (antibody, V domains shown)
VH: QVQLVQSGGGLVKPGGSLRLSCAASGFTFSSYSMSWVRQAPGKGLEWVSSISSSSSYIYYADSVKGRFTISRDNAKNSLYLQMNSLRAEDTAVYYCARSTDAFDIWGQGTMVTVSS
VL: DIVMTQSPSSLSASVGDRVTITCRASQRISNYLNWYQHKSGEDPKLLIYAASSLQSGVPSRFSGSGSGTDFTLTISSLQPEDFATYYCQQYDRYPPTFGQGTKLEIK
With B6 as the molecule, how does the IC50 [4] read?
Its IC50 is 7.03 nM.

And the “tyrosine phosphorylation of VEGFR2 by VEGF-A” value [5]?
The value was “inhibited”.

And the “cross-reaction / binding to murine VEGFR2” value [6]?
The value was “did not cross-react”.

B7: R2PC29: phage-displayed human scFv clone binding VEGFR2; VH CDR1-3 SEQ ID NO: 16-18, VL CDR1/CDR3 SEQ ID NO: 19, 20 (antibody, V domains shown)
VH: QVQLQQSGAEMKKSGSSVKVSCKASGGNFISKGISWVRQAPGQGLEWMGGIIPLFGTGNYAQKFQGRVTITADESTTTVYLQLTSLTPEDTAMYFCATADVDYSDSLEAFDMWGQGTMVTVSS
VL: DIVMTQSPSSLSASVGDRVTITCRASQSINNYLNWYQQKPGKAPNLLIYGASSLQSGVPSRFRGSGSGTDFTLTISSLQPEDFATYYCQQSYSTPLFGQGTKLEIK
With B7 as the molecule, how does the “binding of phage clones to VEGFR2-Fc” value [2] read?
Its value is “bind highly”.

What about the “binding of phage clones to c-Met-Fc control protein” value [3] of the same molecule?
Its value is “not”.

B8: R2S29: soluble anti-VEGFR2 scFv protein generated from phage clone R2PC29 (antibody, V domains shown)
VH: QVQLQQSGAEMKKSGSSVKVSCKASGGNFISKGISWVRQAPGQGLEWMGGIIPLFGTGNYAQKFQGRVTITADESTTTVYLQLTSLTPEDTAMYFCATADVDYSDSLEAFDMWGQGTMVTVSS
VL: DIVMTQSPSSLSASVGDRVTITCRASQSINNYLNWYQQKPGKAPNLLIYGASSLQSGVPSRFRGSGSGTDFTLTISSLQPEDFATYYCQQSYSTPLFGQGTKLEIK
For B8, which “competitive ability against VEGF-A binding to VEGFR2” value [4] is on record?
Its value is “comparatively weak competitive ability”.
